Source: PMC10786891, “Massively parallel profiling of RNA-targeting CRISPR-Cas13d”
Positions count from the first letter of the chain named. In names and notes the source's numbering stands.

T1: EsCas13d, nuclease-dead (Eubacterium siraeum, UniProt B0MS50, R295A;H300A;R849A;H854A)
T1 sequence: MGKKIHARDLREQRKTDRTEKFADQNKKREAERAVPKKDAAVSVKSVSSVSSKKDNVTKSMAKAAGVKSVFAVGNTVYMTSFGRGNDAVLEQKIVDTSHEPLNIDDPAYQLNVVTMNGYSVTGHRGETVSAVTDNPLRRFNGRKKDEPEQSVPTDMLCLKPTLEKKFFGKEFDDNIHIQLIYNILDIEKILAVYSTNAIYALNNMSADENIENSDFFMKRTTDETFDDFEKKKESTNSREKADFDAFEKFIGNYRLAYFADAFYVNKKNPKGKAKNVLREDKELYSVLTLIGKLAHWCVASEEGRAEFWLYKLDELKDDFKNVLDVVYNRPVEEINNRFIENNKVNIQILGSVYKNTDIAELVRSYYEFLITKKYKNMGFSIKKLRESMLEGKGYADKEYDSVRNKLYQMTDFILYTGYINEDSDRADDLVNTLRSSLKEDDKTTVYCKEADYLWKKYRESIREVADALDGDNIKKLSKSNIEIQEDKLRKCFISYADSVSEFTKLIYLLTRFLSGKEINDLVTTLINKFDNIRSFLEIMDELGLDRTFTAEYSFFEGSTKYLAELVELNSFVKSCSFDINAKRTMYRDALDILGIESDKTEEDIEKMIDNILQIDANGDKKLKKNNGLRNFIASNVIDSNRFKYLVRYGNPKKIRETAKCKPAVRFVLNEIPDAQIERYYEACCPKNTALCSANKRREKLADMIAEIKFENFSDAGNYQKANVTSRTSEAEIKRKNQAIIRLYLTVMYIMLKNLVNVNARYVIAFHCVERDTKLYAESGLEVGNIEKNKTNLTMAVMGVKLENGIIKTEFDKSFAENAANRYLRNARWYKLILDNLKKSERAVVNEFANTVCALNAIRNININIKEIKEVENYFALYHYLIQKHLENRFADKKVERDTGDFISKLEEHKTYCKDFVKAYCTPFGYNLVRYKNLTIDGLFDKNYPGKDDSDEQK

B1: target 1 C6U,U8G (mixed)
RNA 1: CACCCGUGCAAAAAUGCAGGGGUCUAAAACUGAGCGGAUAACCUCUCUAUGG
RNA 2: GGGAAUGGAUCCACAUCUACGAAUUCGUACCAUAGAGAGGUUAGCUGCUCACCGAGAUCGGAAGAGCACACGU
B2: target 1 C7U,U10G (mixed)
RNA 1: B1 RNA 1
RNA 2: B1 RNA 2 with U42G, G44U, C45U, U46C
B3: target 1 U11G,G13C (mixed)
RNA 1: B1 RNA 1
RNA 2: B1 RNA 2 with G39C, U41G, G44U, U46C
B4: target 3 C6A,U22C (mixed)
RNA 1: CACCCGUGCAAAAUUGCAGGGGUCUAAAACGACCUGAAUAUUUCAGAUCAAA
RNA 2: GGGAAUGGAUCCACAUCUACGAAUUCGUUCUUGAUCUGAAAUAUUAAGGUCUGCAGAUCGGAAGAGCACACGU
B5: target 3 insU 3' of 9,insG 3' of 8 (mixed)
RNA 1: B4 RNA 1
RNA 2: GGGAAUGGAUCCACAUCUACGAAUUCGUUUUUGAUCUGAAAUAUUGUCAGGUCUGCAGAUCGGAAGAGCACACGU
B6: target 3 G4C,C6G (mixed)
RNA 1: B4 RNA 1
RNA 2: B4 RNA 2 with C30U, A46G, G48C
B7: target 3 complement block 4-6 (mixed)
RNA 1: B4 RNA 1
RNA 2: B4 RNA 2 with C30U, A46G, A47U, G48C
B8: target 3 insU 3' of 5,insC 3' of 2 (mixed)
RNA 1: B4 RNA 1
RNA 2: B5 RNA 2 with G46C, U47A, C48U, A49G, G51U, U52C
B9: target 3 insC 3' of 11,insC 3' of 3 (mixed)
RNA 1: B4 RNA 1
RNA 2: B5 RNA 2 with U42C, A43U, U44A, G46U, U47C, C48A, A49G, G51C
B10: target 3 A18G,U22C (mixed)
RNA 1: B4 RNA 1
RNA 2: B4 RNA 2 with A34G, A46C
B11: target 3 insU 3' of 5,insA 3' of 1 (mixed)
RNA 1: B4 RNA 1
RNA 2: B5 RNA 2 with G46C, U47A, C48U, A49G, G51U, U52C, C53A
B12: target 3 insC 3' of 5,insU 3' of 5 (mixed)
RNA 1: B4 RNA 1
RNA 2: B5 RNA 2 with G46C, U47A, A49U
B13: target 3 insU 3' of 5,insG 3' of 1 (mixed)
RNA 1: B4 RNA 1
RNA 2: B5 RNA 2 with G46C, U47A, C48U, A49G, G51U, U52C, C53G
B14: target 3 U2G,G4C (mixed)
RNA 1: B4 RNA 1
RNA 2: B4 RNA 2 with C30U, A46C, G48C, U50G
B15: target 3 insG 3' of 2,insU 3' of 1 (mixed)
RNA 1: B4 RNA 1
RNA 2: B5 RNA 2 with G46C, U47A, C48G, A49G, G50U, U52C, C53U
B16: target 3 insG 3' of 9,insG 3' of 9 (mixed)
RNA 1: B4 RNA 1
RNA 2: B5 RNA 2 with U44G, U45G, G46U
B17: target 3 G3C,A18G (mixed)
RNA 1: B4 RNA 1
RNA 2: B4 RNA 2 with C30U, A34G, A46C, G49C
B18: target 3 A5G,A9G (mixed)
RNA 1: B4 RNA 1
RNA 2: B4 RNA 2 with C30U, A43G, A46C, A47G
B19: target 3 insA 3' of 4 (mixed)
RNA 1: B4 RNA 1
RNA 2: GGGAAUGGAUCCACAUCUACGAAUUCGUUUUUGAUCUGAAAUAUUCAGAGUCUGCAGAUCGGAAGAGCACACGU
B20: target 3 insU 3' of 22,insC 3' of 3 (mixed)
RNA 1: B4 RNA 1
RNA 2: GGGAAUGGAUCCACAUCUACGAAUUCGUUUUUUGAUCUGAAAUAUUCAGGCUCUGCAGAUCGGAAGAGCACACGU
B21: target 3 insA 3' of 10,insG 3' of 7 (mixed)
RNA 1: B4 RNA 1
RNA 2: B5 RNA 2 with U44A, G46U, U47G
B22: target 3 insU 3' of 5,insU 3' of 1 (mixed)
RNA 1: B4 RNA 1
RNA 2: B5 RNA 2 with G46C, U47A, C48U, A49G, G51U, U52C, C53U
B23: target 3 insA 3' of 14,insC 3' of 3 (mixed)
RNA 1: B4 RNA 1
RNA 2: B20 RNA 2 with U33G, G34A, A35U, U36C, C37U, U38G, G39A
B24: target 3 G4A,A5G (mixed)
RNA 1: B4 RNA 1
RNA 2: B4 RNA 2 with C30U, A46C, A47G, G48A
B25: target 3 U2G,A11G (mixed)
RNA 1: B4 RNA 1
RNA 2: B4 RNA 2 with C30U, A41G, A46C, U50G
B26: target 3 U2A,A5G (mixed)
RNA 1: B4 RNA 1
RNA 2: B4 RNA 2 with C30U, A46C, A47G, U50A
B27: target 3 insA 3' of 22,insG 3' of 7 (mixed)
RNA 1: B4 RNA 1
RNA 2: B20 RNA 2 with U31A, C47G, A48C, G49A, C51G
B28: target 3 insC 3' of 22,insU 3' of 5 (mixed)
RNA 1: B4 RNA 1
RNA 2: B20 RNA 2 with U31C, G49U, C51G
B29: target 3 insC 3' of 12,insG 3' of 2 (mixed)
RNA 1: B4 RNA 1
RNA 2: GGGAAUGGAUCCACAUCUACGAAUUCGUUUUUGAUCUGAACAUAUUCAGGUGCUGCAGAUCGGAAGAGCACACGU
B30: target 3 U2A,A5C (mixed)
RNA 1: B4 RNA 1
RNA 2: B4 RNA 2 with C30U, A46C, A47C, U50A
B31: target 3 G4C,A5G (mixed)
RNA 1: B4 RNA 1
RNA 2: B4 RNA 2 with C30U, A46C, A47G, G48C
B32: target 3 C1U,C16U (mixed)
RNA 1: B4 RNA 1
RNA 2: B4 RNA 2 with C30U, C36U, A46C, C51U
B33: target 3 A5C,U8G (mixed)
RNA 1: B4 RNA 1
RNA 2: B4 RNA 2 with C30U, U44G, A46C, A47C

The binders below were run against T1, EsCas13d, nuclease-dead (assay: crRNA (strand 1, pre-loaded); Mg2+; 40 mM Tris-HCl pH 7.5, 150 mM NaCl, 6 mM MgCl2, 1 mM DTT, 0.1% Tween-20, 0.2 mg/ml BSA; 25 C; 10 min per concentration, then washed). Conditions: tags: His6-TwinStrep-SUMO cleaved; N-terminal SNAP kept (SNAP-Surface 488); label: 3' end held by stalled T7 RNA polymerase.

B1 and B2 are within error of each other in Kd: 11 ± 0.5 nM for the first, 11.2 ± 0.5 nM for the second.

B3 and B4 are within 1.5-fold of each other in Kd: ~70 nM for the first, 49.5 ± 7.5 nM for the second.

Compared with B5, B6 is 3.4-fold lower in Kd: 82 ± 19 nM for the first, 24.1 ± 3.15 nM for the second.

Going from B7 to B8, the Kd rises from 23.7 ± 2.45 nM to 40.5 ± 6 nM (1.7-fold). The first binds more tightly here.

First: B9
Second: B10
The Kd of the first is 3.6-fold higher: 50 ± 6 nM for the first, 13.8 ± 2 nM for the second. The second binds more tightly here.

Going from B11 to B12, the Kd falls from 36.5 ± 10.5 nM to 5.23 ± 0.375 nM (7-fold). The second binds more tightly here.

Compared with B13, B14 is 7.4-fold lower in Kd: 27 ± 4.5 nM for the first, 3.65 ± 0.55 nM for the second. The second binds more tightly here.

Going from B15 to B16, the Kd rises from 67.5 ± 9 nM to 102 ± 21 nM (1.5-fold). The first binds more tightly here.

Going from B17 to B18, the Kd rises from 38.7 ± 6.25 nM to 73 ± 14 nM (1.9-fold). The first binds more tightly here.

First: B19
Second: B20
The Kd of the first is 5.4-fold higher: 65.5 ± 15 nM for the first, 12.2 ± 1.35 nM for the second.

Compared with B21, B22 is 2.4-fold lower in Kd: 73.5 ± 9.5 nM for the first, 31 ± 10 nM for the second.

Compared with B23, B24 is 3-fold lower in Kd: 59 ± 9.5 nM for the first, 19.5 ± 1.7 nM for the second.

Compared with B25, B26 is 20-fold lower in Kd: 62.5 ± 12 nM for the first, 3.12 ± 0.355 nM for the second.

First: B27
Second: B28
The Kd of the first is 7.8-fold higher: 96 ± 32.5 nM for the first, 12.3 ± 1.6 nM for the second. The second binds more tightly here.

B29 and B30 are within error of each other in Kd: 94 ± 39.5 nM for the first, 47.6 ± 10.6 nM for the second.

Compared with B31, B32 is 4.5-fold higher in Kd: 14.7 ± 1.1 nM for the first, 66.5 ± 15.5 nM for the second.

B33 was tested, and the Kd was 74 ± 12 nM.
